The values below come from US12258605B2, “Alkane oxidation by modified hydroxylases” (The California Institute of Technology, priority 2005, dated 2025).

A short description of data set [1]: Absorption spectra, spin shift upon incubation with substrate. The class given is binding. Conditions: 3 uM purified P450; incubation with ethane or octane. As for the experimental part:
The absorption spectra for 53-5H and 35-E11 were taken using a 3 uM solution of purified P450 in a quartz cuvette. Upon incubation with ethane, no shift in equilibrium from low- (Amax at 418 nm) to high-spin (Amax at 390 nm) configuration of the ferric P450 was observed.

Data set [2] is described as follows: NADPH oxidation rates and coupling for propane hydroxylation (Example 4). Format: biochemical. The note with it: propanol formation rate/NADPH oxidation rate. The procedure: Determination of NADPH oxidation rates. Initial rates of NADPH oxidation were measured using propane-saturated 100 mM KPi pH 8.0 buffer, purified enzyme at 50-200 nM, and a saturating concentration of NADPH (200 μM). The absorbance decrease at 340 nm was monitored at 25° C. in a BioSpec-1601 UV/VIS spectrophotometer (Shimadzu, Columbia, MD) for 1 min. Rates were calculated over the first 20 seconds using NADPH extinction coefficient ε340=6210 M^−1 cm^−1. Rates were determined in triplicate. Coupling values were calculated from the ratio of propanol formation rate to NADPH oxidation rate in the presence of propane.

The next data set in a line: Activity on palmitate. The class given is biochemical. As for the experimental part:
To evaluate the fate of the enzyme's original function, P450PMO activity was tested on the long-chain fatty acids laurate and palmitate.

Data set [3] can be described thus: Halomethane reactions (formaldehyde, PFBHA, GC-ECD): bromomethane. The class given is biochemical. As for the experimental part:
Halomethane reactions: Reactions with chloromethane, bromomethane, and iodomethane were carried out in 1 mL-scale using halomethane-saturated buffer (100 mM phosphate pH 8.0) and 50-500 nM purified protein. 900 μL buffer were added with protein, incubated for 15 seconds, and then added with 100 μL NADPH regeneration solution (100 units/mL IDH, 70 mg/mL isocitrate, 1.5 mg/ml NADP+). Solution were sealed and stirred for 30 minutes at 25° C. To reduce background levels of formaldehyde to a minimum, buffers were prepared using HPLC-grade water and autoclaved twice prior to use. Formaldehyde concentration in the reaction solutions was determined through derivatization with o-(2,3,4,5,6-pentafluorobenzyl)hydroxylamine hydrochloride (PFBHA) and gas chromatography. […] Organic phase was removed, diluted 1/100 v/v, and analyzed on a Shimadzu GC-17A gas chromatograph. […] Quantification was carried out using a calibration curve and solutions at known concentration of formaldehyde. […]
Along with activity on propane, P450PMO also hydroxylates ethane (TTN˜2,500), despite ethane's higher C—H bond energy (101.0 kcal mol^−1 versus 98.6 kcal mol^−1 for propane). […] Reactions with purified P450 variants and the halomethanes were analyzed for formaldehyde formation (FIG. 42). […] Activity on chloromethane was detected at lower levels (0.5-1% of propane activity) and in fewer P450 variants. […]

The conditions of data set [4]: laurate; cited from earlier work.

B1: 35-E11: P450 BM-3 variant, SEQ ID NO:7: 53-5H substitutions plus E464G and I710T (protein)
chain: TIKEMPQPKTFGELKNLPLLNTDKPVQALMKIADELGEIFKFEAPGCVTRYLSSQRLIKEACDESRFDKNLSQALKFFRDFSGDGLFTSWTHEINWKKAHNILLPSFSQQAMKGYHAMMVDIAVQLVQKWERLNADEHIEVSEDMTRLTLDTIGLCGFNYRFNSFYRDQPHPFIISMVRALDEVMNKLQRANPDDPAYDENKRQCQEDIKVMNDLVDKIIADRKARGEQSDDLLTQMLNGKDPETGEPLDDGNISYQIITFLIAGHETTSGLLSFALYFLVKNPHVLQKVVEEAARVLVDPVPSYKQVKQLKYVGMVLNEALRLWPTFPAFSLYAKEDTVLGGEYPLEKGDEVMVLIPQLHRDKTIWGDDVEEFRPERFENPSAIPQHAFKPFGNGQRACIGQQFALHEATLVLGMMLKHFDFEDHTNYELDIKETLTLKPEGFVVKAKSKKIPLGGIPSPSTGQSAKKVRKKAENAHNTPLLVLYGSNMGTAEGTARDLADIAMSKGFAPQVATLDSHAGNLPREGAVLIVTASYNGHPPDNAKQFVDWLDQASADEVKGVRYSVFGCGDKNWATTYQKVPAFIDETLAAKGAENIADRGEADASDDFEGTYEEWREHMWSDVAAYFNLDIENSEDNKSTLSLQFVDSAADMPLAKMHGAFSTNVVASKELQQPGSARSTRHLEIELPKEASYQEGDHLGVIPRNYEGTVNRVTARFGLDASQQIRLEAEEEKLAHLPLAKTVSVEELLQYVELQDPVTRTQLRAMAAKTVCPPHKVELEALLEKQAYKEQVLAKRLTMLELLEKYPACEMKFSEFIALLPSIRPRYYSISSSPRVDEKQASITVSVVSGEAWSGYGEYKGIASNYLAELQEGDTITCFISTPQSEFTLPKDPETPLIMVGPGTGVAPFRGFVQARKQLKEQGQSLGEAHLYFGCRSPHEDYLYQEELENAQSEGIITLHTAFSRMPNQPKTYVQHVMEQDGKKLIELLDQGAHFYICGDGSQMAPAVEATLMKSYADVHQVSEADARLWLQQLEEKGRYAKDVWAG
modifications: mutant P450 35-E11 protein sequence
Take B1: the “shift from low- to high-spin ferric P450” value in data set [1] is “behaved identically”.

B2: P450PMO: P450 BM-3 variant, SEQ ID NO:125; 7-7 plus G443A and D698G; propane monooxygenase (protein)
chain: TIKEMPQPKTFGELKNLPLLNTDKPVQALMKIADELGEIFKFEAPGCVTRYISSQRLIKEACDESRFDKNLSQELKFFRDFGGDGLFTSWTHEINWKKAHNILLPSFSQQAMKGYHAMMVDIAVQLVQKWERLNADEHIEVSEDMTRLTLDTIGLCGFNYRFNSFYRDQPHPFIISMVRALDEVMNKPQRANPDDPAYDENKRQCQEDIKVMNDLVDKIIADRKARGEQSDDLLTQMLNGKDPETGEPLDDGNISYQIITFLIAGHETTSGLLSFALYFLVKNPHVLQKVVEEAARVLVDPVPSYKQVKQLKYVGMVLNEALRLWPTFPAFSLYAKEDTVLGGEYPLEKGDEVMVLIPQLHRDKTVWGDDVEEFRPERFENPSAIPQHAFKPFGNGQRACIGQQFALHEATLVLGMMLKHFDFEDHTNYELDIKETLTLKPEAFVVKAKSKKIPLGGIPSPSTGQSAKKVRKKAENAHNTPLLVLYGSNMGTAEGTARDLADIAMSKGFAPQVATLDSHAGNLPREGAVLIVTASYNGHPPDNAKQFVDWLDQASADEVKGVRYSVFGCGDKNWATTYQKVPAFIDETLAAKGAENIADRGEADASDDFEGTYEEWREHMWSDVAAYFNLDIENSEDNKSTLSLQFVDSAADMPLAKMHGAFSTNVVASKELQQPGSARSTRHLEIELPKEASYQEGGHLGVIPRNYEGTVNRVTARFGLDASQQIRLEAEEEKLAHLPLAKTVSVEELLQYVELQDPVTRTQLRAMAAKTVCPPHKVELEALLEKQAYKEQVLAKRLTMLELLEKYPACEMKFSEFIALLPSIRPRYYSISSSPRVDEKQASITVSVVSGEAWSGYGEYKGIASNYLAELQEGDTITCFISTPQSEFTLPKDPETPLIMVGPGTGVAPFRGFVQARKQLKEQGQSLGEAHLYFGCRSPHEDYLYQEELENAQSEGIITLHTAFSRMPNQPKTYVQHVMEQDGKKLIELLDQGAHFYICGDGSQMAPAVEATLMKSYADVHQVSEADARLWLQQLEEKGRYAKDVWAG
modifications: Mutant P450PMO protein sequence
notes: 7-7 plus G443A and D698G; propane monooxygenase
Regarding B2, in data set [2], the “coupling efficiency for propane hydroxylation” value was 90%. Moreover, the “hydroxylated fatty acids formed” value in “Activity on palmitate” is on record as “no detectable amounts of hydroxylated fatty acids”. The “turnover rates, halomethane dehalogenase activities” value in data set [3] (CH3Cl, CH3Br, CH3I, estimated from 30 minute-reactions) is listed as 0.5-5 min^−1. Also, the bromomethane dehalogenase activity in data set [3] (formaldehyde formation) was 1-5 % of the propane activity.

B3: Wild-type BM-3: wild-type cytochrome P450 BM-3 from Bacillus megaterium, SEQ ID NO:1 (protein, listed as Bacillus megaterium)
chain: TIKEMPQPKTFGELKNLPLLNTDKPVQALMKIADELGEIFKFEAPGRVTRYLSSQRLIKEACDESRFDKNLSQALKFVRDFAGDGLFTSWTHEKNWKKAHNILLPSFSQQAMKGYHAMMVDIAVQLVQKWERLNADEHIEVPEDMTRLTLDTIGLCGFNYRFNSFYRDQPHPFITSMVRALDEAMNKLQRANPDDPAYDENKRQFQEDIKVMNDLVDKIIADRKASGEQSDDLLTHMLNGKDPETGEPLDDENIRYQIITFLIAGHETTSGLLSFALYFLVKNPHVLQKAAEEAARVLVDPVPSYKQVKQLKYVGMVLNEALRLWPTAPAFSLYAKEDTVLGGEYPLEKGDELMVLIPQLHRDKTIWGDDVEEFRPERFENPSAIPQHAFKPFGNGQRACIGQQFALHEATLVLGMMLKHFDFEDHTNYELDIKETLTLKPEGFVVKAKSKKIPLGGIPSPSTEQSAKKVRKKAENAHNTPLLVLYGSNMGTAEGTARDLADIAMSKGFAPQVATLDSHAGNLPREGAVLIVTASYNGHPPDNAKQFVDWLDQASADEVKGVRYSVFGCGDKNWATTYQKVPAFIDETLAAKGAENIADRGEADASDDFEGTYEEWREHMWSDVAAYFNLDIENSEDNKSTLSLQFVDSAADMPLAKMHGAFSTNVVASKELQQPGSARSTRHLEIELPKEASYQEGDHLGVIPRNYEGIVNRVTARFGLDASQQIRLEAEEEKLAHLPLAKTVSVEELLQYVELQDPVTRTQLRAMAAKTVCPPHKVELEALLEKQAYKEQVLAKRLTMLELLEKYPACEMKFSEFIALLPSIRPRYYSISSSPRVDEKQASITVSVVSGEAWSGYGEYKGIASNYLAELQEGDTITCFISTPQSEFTLPKDPETPLIMVGPGTGVAPFRGFVQARKQLKEQGQSLGEAHLYFGCRSPHEDYLYQEELENAQSEGIITLHTAFSRMPNQPKTYVQHVMEQDGKKLIELLDQGAHFYICGDGSQMAPAVEATLMKSYADVHQVSEADARLWLQQLEEKGRYAKDVWAG
As a reminder, the Km is the substrate concentration at which the rate is half of its maximum. Turning to B3, in data set [4], the Michaelis-Menten constant (Km) is 210 µM and the catalytic efficiency is 190000 M⁻¹ s⁻¹.
